Measured values taken from PMC11491553, “Structural insights into the mechanotransducing mechanism of FtsEX in cell division” (MedComm, 2024).

Target: the molecule itself
Test: cryo-EM structure; FtsE(E163Q)X with endogenously captured ATP, reconstituted into lipid nanodiscs (MSP1D1, E. coli polar extract, 1:2:200); 2.6 Å

Protein | stoichiometry N
FtsE(E163Q) (enzyme, E. coli K12, gene amplified from genomic DNA; The gene was amplified from genomic DNA and no truncation is mentioned; Removal of the 8×His-SUMO fusion from FtsE is not described; the complex with EnvC was recaptured on nickel; Retains endogenously captured ATP; also called NBD; FtsE of FtsE(E163Q)X; not shown: 8×His, N-terminal, kept) IRFEHVSKAYLGGRQALQGVTFHMQPGEMAFLTGHSGAGKSTLLKLICGIERPSAGKIWFSGHDITRLKNREVPFLRRQIGMIFQDHHLLMDRTVYDNVAIPLIIAGASGDDIRRRVSAALDKVGLLDKAKNFPIQLSGGEQQRVGIARAVVNKPAVLLADQPTGNLDDALSEGILRLFEEFNRVGVTVLMATHDINLISRRSYRMLTLSDGHLHGGVGHE | 2
FtsX (natural protein, E. coli K12, FtsX, E. coli K12, integral membrane protein of FtsEX (four transmembrane helices, periplasmic loop domain); gene amplified from genomic DNA; The gene was amplified from genomic DNA and no truncation or tag on FtsX is mentioned; also called FtsX of FtsEX; TMDs and PLDs) RFRKSVGGSGDGGRNAPKRAKSSPKPVNRKTNVFNEQVRYAFHGALQDLKSKPFATFLTVMVIAISLTLPSVCYMVYKNVNQAATQYYPSPQITVYLQKTLDDDAAAGVVAQLQAEQGVEKVNYLSREDALGEFRNWSGFGGALDMLEENPLPAVAVVIPKLDFQGTESLNTLRDRITQINGIDEVRMDDSWFARLAALTGLVGRVSAMIGVLMVAAVFLVIGNSVRLSIFARRDSINVQKLIGATDGFILRPFLYGGALLGFSGALLSLILSEILVLRLSSAVAEVAQVFGTKFDINGLSFDECLLLLLVCSMIGWVAAWLATVQHLRHFTPE | 2
